± gives the standard deviation of the averaged measurements.
Tested on: Saccharomyces cerevisiae
Test: protein stability index of tFT-peptide fusion (C-terminal peptide) (PSI (0-1 scale)); higher = more stable (slower turnover)
Conditions: genetic background: wild type; temperature: 30 C
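Also: PSI is a weighted mean of sequencing reads over stability bins, variants kept only with over 10 reads, mCherry proximal and sfGFP distal, peptide attached via GGGS linker.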

| Sequence | protein stability index |
| --- | --- |
| DKYKIDKKSKRK | 0.683 ± 0.059 |
| LLLSALSRRPSF | 0.678 ± 0.023 |
| PPPSPPPPPSLP | 0.669 ± 0.019 |
| AWGRWGGGSRVE | 0.636 ± 0.02 |
| ERTSSSWPPPAV | 0.72 ± 0.09 |
| RVGWCGGWRGGR | 0.677 ± 0.059 |
| GSPTSAPLSPPP | 0.686 ± 0.0038 |
| APPRSPLFSSLF | 0.638 ± 0.01 |
| DDTSIVRRMQSP | 0.674 ± 0.014 |
| GTGQSRAEGARP | 0.672 ± 0.015 |
| TSIREVPAPCSH | 0.756 ± 0.032 |
| FSCKGSYIFTRR | 0.651 ± 0.012 |
| GGGAGKGPQTRG | 0.676 ± 0.062 |
| LIWGRGGSRTGG | 0.747 ± 0.062 |
| PLASPYRLCPVP | 0.624 ± 0.044 |
| LSLVSGWVIPGV | 0.687 ± 0.051 |
| FWPPPATSAAPC | 0.79 ± 0.011 |
| GWRGVGVGGGVC | 0.689 ± 0.017 |
| CLVKSNVCVAPG | 0.643 ± 0.12 |
| RSGREFLLSSLI | 0.718 ± 0.084 |
| TRTCGRRRAGGR | 0.633 ± 0.1 |
| RKICVEDIKESI | 0.669 ± 0.013 |
| GGAGAGHDPRRN | 0.705 ± 0.019 |
| GRAGGDGVGGGV | 0.6382 ± 0.0024 |
| SSPPAPHLAPPP | 0.703 ± 0.053 |
| SSDSYANLNWVI | 0.741 ± 0.038 |

| Sequence | protein stability index |
| --- | --- |
| RPPLLSPTRTLP | 0.707 ± 0.15 |
| GPKTFIRSTKEI | 0.697 ± 0.03 |
| GRPKGGGIGEAG | 0.6928 ± 0.00079 |
| HYSPLPSLPPLP | 0.684 ± 0.077 |
| SGRSGECEGSWD | 0.662 ± 0.13 |
| LILLTIQSQPPV | 0.622 ± 0.0018 |
| GWAWGVALGVRG | 0.54189 ± 0.00034 |
| SAPSAAPPRSHP | 0.708 ± 0.025 |
| AFPSLRSLPLFS | 0.608 ± 0.024 |
| PSNPTPLTLLLF | 0.641 ± 0.017 |
| GCLSRLCKGKVM | 0.599 ± 0.033 |
| ITSQLWGVPLPY | 0.7134 ± 0.0032 |
| WCIPEAPVATSR | 0.684 ± 0.0083 |
| ECFRWQRRLHYD | 0.533 ± 0.024 |
| GAAGASCDCTGG | 0.695 ± 0.07 |
| YLVKSCCNKDNV | 0.659 ± 0.029 |
| SNERWCGCGLLW | 0.764 ± 0.0097 |
| RRLSRPPNLSRH | 0.676 ± 0.021 |
| WGKRGGLGALSR | 0.653 ± 0.06 |
| PEGPGAGRGEHN | 0.686 ± 0.044 |
| SSDFTSRHTRPP | 0.639 ± 0.035 |
| SLSVPPRPSSPP | 0.624 ± 0.017 |
| PPPHIPPPPLSA | 0.682 ± 0.025 |
| VGKHNLYSKNWR | 0.66 ± 0.016 |
| GLEGSVRRVRGS | 0.701 ± 0.011 |
| SVAVTGSTLVLI | 0.628 ± 0.036 |

| Sequence | protein stability index |
| --- | --- |
| SGVVSASFVVLD | 0.677 ± 0.01 |
| ASGGLVGAWVCV | 0.675 ± 0.0091 |
| LFFRFGRWFLGF | 0.671 ± 0.027 |
| LFGQTVLLSAGT | 0.713 ± 0.018 |
| KTYKNKTQQNAS | 0.746 ± 0.045 |
| RQVERRARRDRV | 0.671 ± 0.055 |
| LGLWSSVFGSSL | 0.743 ± 0.018 |
| RGRCLGAESRGG | 0.767 ± 0.069 |
| EINSIEQESGTT | 0.677 ± 0.019 |
| VWGWGSWGGCGG | 0.705 ± 0.066 |
| LLFCFIPCVFWG | 0.5096 ± 0.0029 |
| PGPSVRSWHPMD | 0.69 ± 0.082 |
| PSPPTALCPPPL | 0.68 ± 0.15 |
| GTVTVLVGVHWE | 0.539 ± 0.008 |
| PPPAPPPSPPSN | 0.675 ± 0.044 |
| ATGLPSPALLHT | 0.687 ± 0.043 |
| FSSGLAEVGVAR | 0.676 ± 0.074 |
| LSSLLFFLSWVV | 0.529 ± 0.018 |
| GVSCIAEGRGGV | 0.6693 ± 0.0045 |
| HEIRSQSFGLYV | 0.687 ± 0.025 |
| LVILWDVLSVVP | 0.612 ± 0.049 |
| SYESKPPLSWDS | 0.73 ± 0.11 |
| DSETLLSKEWKQ | 0.651 ± 0.11 |
| GGGDRDGGTASG | 0.698 ± 0.073 |
| IECACVPLVAGG | 0.656 ± 0.024 |
| LVFREISSRHEI | 0.711 ± 0.018 |

| Sequence | protein stability index |
| --- | --- |
| PAPPLLPPPSPP | 0.63 ± 0.027 |
| RFLPALSRSLPS | 0.782 ± 0.11 |
| TKKKTKKKEQKE | 0.6627 ± 0.0027 |
| SGSGVLVGCLGS | 0.68 ± 0.038 |
| SGAADGDADRHP | 0.721 ± 0.029 |
| RSRYWRTHGKVN | 0.557 ± 0.028 |
| IGGIIFICTSNK | 0.555 ± 0.015 |
| PPPLRAFPPPLL | 0.648 ± 0.06 |
| CMRVHPGHPFPY | 0.633 ± 0.06 |
| FPLPSPPRPFSF | 0.761 ± 0.041 |
| CLGCAFPPHSLY | 0.646 ± 0.046 |
| SPRVSRRVLPSF | 0.6696 ± 0.0027 |
| PLLHSARSSPFR | 0.699 ± 0.049 |
| SGYYTRVFICEV | 0.618 ± 0.025 |
| PHPNHRGPKGAN | 0.686 ± 0.032 |
| AALVFPSCVVGG | 0.60949 ± 0.00034 |
| YTLMEERTKKDN | 0.742 ± 0.068 |
| PPSPHPPPSAPP | 0.6411 ± 0.0028 |
| LGKSRVHLWTGT | 0.706 ± 0.04 |
| LFVMGSACPLRI | 0.681 ± 0.029 |
| VPLSPPRTPTLY | 0.648 ± 0.12 |
| FGAATLFLLAPC | 0.55 ± 0.02 |
| PSPSFPPPPLSR | 0.721 ± 0.073 |
| APLLAPPPPSRT | 0.642 ± 0.009 |
| PPPRTYLPRPRL | 0.764 ± 0.0085 |
| PPLHSSPPAVPP | 0.699 ± 0.038 |

| Sequence | protein stability index |
| --- | --- |
| RLGGGGVGVAGV | 0.679 ± 0.00083 |
| KGGFGCVGLPGG | 0.638 ± 0.031 |
| HSLLPSYPFLSP | 0.715 ± 0.076 |
| SSCLDAHPPSSS | 0.736 ± 0.072 |
| RRKRKQQNTTTE | 0.685 ± 0.016 |
| QNGNRPCCEKAW | 0.681 ± 0.021 |
| PPAPFAICRTRS | 0.654 ± 0.018 |
| LGVDFCRGVVVE | 0.654 ± 0.035 |
| GAQSAVLQNPPA | 0.6238 ± 0.0042 |
| TTIVGRIMRVMR | 0.706 ± 0.012 |
| GGGAGWGWGGRM | 0.673 ± 0.017 |
| PFCTRRSVRYRS | 0.719 ± 0.049 |
| SVLCRIGAGCAM | 0.629 ± 0.018 |
| PPPHAKPPPGPL | 0.672 ± 0.019 |
| FGGGGGGVGLAV | 0.65 ± 0.033 |
| LNWISKQVTEKH | 0.676 ± 0.013 |
| VCGRTHRVLPTY | 0.641 ± 0.015 |
| ARMPQVSEIALC | 0.6612 ± 0.00024 |
| NPGGRPKNTINP | 0.649 ± 0.11 |
| LPHPRPPQSPPQ | 0.7 ± 0.03 |
| GEALSFIFVSPP | 0.722 ± 0.033 |
| YAKKIDTIIILT | 0.54 ± 0.009 |
| LDAFYVNVGLFG | 0.732 ± 0.045 |
| LLPPTPIAFPPS | 0.728 ± 0.073 |
| HFCFKVFSVRAP | 0.627 ± 0.018 |
| ENPVVRSGAVGS | 0.698 ± 0.031 |

| Sequence | protein stability index |
| --- | --- |
| KTINKEQKKKEM | 0.7 ± 0.036 |
| GLYHGFCLSGCL | 0.678 ± 0.04 |
| GCLSPSTPLWFP | 0.71454 ± 0.00037 |
| EKTNQPFHTLHA | 0.673 ± 0.011 |
| GGRREGRGFNDG | 0.676 ± 0.025 |
| GRVQARGRPGLD | 0.632 ± 0.045 |
| DIKKSTKGQNQQ | 0.602 ± 0.025 |
| RSYFGLACPSVS | 0.626 ± 0.03 |
| EFKGRHEETTKS | 0.72 ± 0.08 |
| RGVETGRGREKE | 0.643 ± 0.046 |
| FVGAEWLLFYFS | 0.677 ± 0.069 |
| WVLPFLGAWLEL | 0.606 ± 0.063 |
| FEVAPAPLDQVV | 0.653 ± 0.028 |
| NKKFTKQTCKPK | 0.663 ± 0.0011 |
| PVLLVWDLPAVL | 0.714 ± 0.086 |
| PVPDDVTVLLSR | 0.804 ± 0.12 |
| HPSPFTPPTNPY | 0.733 ± 0.06 |
| AYEGVYAVVANV | 0.616 ± 0.014 |
| CLLFSRQLLESP | 0.678 ± 0.077 |
| PHILMSFGSPLS | 0.729 ± 0.018 |
| APHYPTGPTVKI | 0.692 ± 0.033 |
| PPPHPLPPLPAT | 0.744 ± 0.043 |
| DRSLRLGSLTSG | 0.6 ± 0.017 |
| PSPRPPSPLFPP | 0.685 ± 0.073 |
| FSISCFRVSSDF | 0.761 ± 0.032 |
| VGGRLLFVGKRG | 0.669 ± 0.051 |

| Sequence | protein stability index |
| --- | --- |
| GRIVPSFQGSPQ | 0.723 ± 0.093 |
| NRTPTPNQTPPT | 0.6798 ± 0.0048 |
| GIVVTCLRSRWD | 0.647 ± 0.013 |
| EQRQVQVTWRQD | 0.66 ± 0.055 |
| IIKRKKLMEKRT | 0.663 ± 0.013 |
| TKTKKKKNKKQE | 0.719 ± 0.067 |
| GFLSYWYISFPF | 0.641 ± 0.014 |
| GAVTNHAMASRP | 0.725 ± 0.035 |
| VSLSSLPRRFSP | 0.75 ± 0.04 |
| GYNLTNVIPGVG | 0.681 ± 0.016 |
| FQNFTLSQEQSE | 0.717 ± 0.014 |
| TLGKPVGLARLS | 0.692 ± 0.035 |
| PLAPSPPLPAFC | 0.693 ± 0.02 |
| WVSGLVSIGACL | 0.683 ± 0.0076 |
| LTSSLSLSFPPL | 0.749 ± 0.039 |
| KQKQNKKKNNKT | 0.843 ± 0.16 |
| EGDGVGCWWELW | 0.683 ± 0.033 |
| RPPSLSPAPAPP | 0.73 ± 0.027 |
| KRREEKKRKRVE | 0.648 ± 0.094 |
| GTEYDENSGTNE | 0.642 ± 0.011 |
| GAGRAVRAFCVL | 0.651 ± 0.02 |
| RPVRLLPCVCHF | 0.679 ± 0.017 |
| ERSRRVSNIMVL | 0.48 ± 0.095 |
| LHRFPMISLLGP | 0.699 ± 0.018 |
| PPSPLPPPPPHP | 0.651 ± 0.079 |
| VALVCFAAGWLW | 0.507 ± 0.037 |

| Sequence | protein stability index |
| --- | --- |
| PVSPPLSLASPS | 0.706 ± 0.047 |
| YSLVKITHGRKK | 0.684 ± 0.015 |
| HFPFYPSAPPPF | 0.713 ± 0.056 |
| GGWGRKCGGSGG | 0.711 ± 0.018 |
| PKSFLRRLRGWA | 0.701 ± 0.07 |
| EERENKKKLDQT | 0.659 ± 0.029 |
| YSFFTLCLSLPA | 0.557 ± 0.025 |
| VGMAGWSRVRWG | 0.715 ± 0.0089 |
| PPCCFPRSPSPS | 0.714 ± 0.049 |
| QGRYPLNVLIRI | 0.57 ± 0.057 |
| SFATPCCYPLHF | 0.713 ± 0.037 |
| PHTHHLPPPNCP | 0.679 ± 0.04 |
| VLPKQVSEALTL | 0.612 ± 0.024 |
| GQVTAHFRLARV | 0.697 ± 0.049 |
| LERCKSLDSIVL | 0.701 ± 0.071 |
| LLFFSLFFSPLP | 0.642 ± 0.041 |
| PPPPPPRFHALH | 0.715 ± 0.021 |
| VQMKVKKRLNEW | 0.6744 ± 0.0046 |
| VLVSGRCCRCGF | 0.701 ± 0.048 |
| KNKKKKINKNKK | 0.713 ± 0.067 |

— the supplement of paper PMC10724198
